This is an account of results in patent US20260232827A1 (Zymeworks, published 2026).

In test [1] the target is T1, human sodium-dependent phosphate transporter 2B (NaPi2b) (human, UniProt O95436 1-690).
T1 construct: UniProt ID is given as 095436 [sic]; also called hNaPi2b; Hu NaPi2b
T1 sequence: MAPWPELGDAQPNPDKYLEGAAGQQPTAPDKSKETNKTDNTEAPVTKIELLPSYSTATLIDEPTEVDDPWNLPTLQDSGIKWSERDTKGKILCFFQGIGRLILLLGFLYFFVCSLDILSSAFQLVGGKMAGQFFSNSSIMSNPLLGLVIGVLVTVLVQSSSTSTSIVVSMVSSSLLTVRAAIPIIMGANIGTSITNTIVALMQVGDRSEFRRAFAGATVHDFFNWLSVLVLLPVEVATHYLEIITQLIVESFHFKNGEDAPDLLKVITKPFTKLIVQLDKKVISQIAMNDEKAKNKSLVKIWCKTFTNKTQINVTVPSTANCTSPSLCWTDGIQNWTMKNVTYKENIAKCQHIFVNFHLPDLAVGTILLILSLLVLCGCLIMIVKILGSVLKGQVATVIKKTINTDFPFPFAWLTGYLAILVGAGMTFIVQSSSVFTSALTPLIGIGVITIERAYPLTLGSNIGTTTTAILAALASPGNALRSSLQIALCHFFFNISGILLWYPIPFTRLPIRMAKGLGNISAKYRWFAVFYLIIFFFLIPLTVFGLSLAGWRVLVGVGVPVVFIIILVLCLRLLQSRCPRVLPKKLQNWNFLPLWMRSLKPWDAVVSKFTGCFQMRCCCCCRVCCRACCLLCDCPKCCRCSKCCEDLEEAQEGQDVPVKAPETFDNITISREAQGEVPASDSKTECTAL
The experiment in a line: flow cytometry, IGROV-1 cells (endogenous NaPi2b). The arrangement: unit not given here.

Test [2] concerns the target T1, human sodium-dependent phosphate …. The experiment in a line: flow cytometry, IGROV-1 cells (endogenous NaPi2b); apparent Kd.
Method: Briefly, cells were seeded at 50,000 cells/well in conical-bottom 96-well plates and treated with test antibody for 24 hours at 4° C. to prevent internalization. […] Following incubation and washing, fluorescence was detected by flow cytometry on a BD LSRFortessa™ Cell Analyzer (BD Biosciences, Franklin Lake, NJ) with 1,000 minimum events collected per well.
Test [3] concerns the target T2, human sodium-dependent phosphate transporter 2B (NaPi2b) (human, UniProt O95436 1-690).
T2 sequence: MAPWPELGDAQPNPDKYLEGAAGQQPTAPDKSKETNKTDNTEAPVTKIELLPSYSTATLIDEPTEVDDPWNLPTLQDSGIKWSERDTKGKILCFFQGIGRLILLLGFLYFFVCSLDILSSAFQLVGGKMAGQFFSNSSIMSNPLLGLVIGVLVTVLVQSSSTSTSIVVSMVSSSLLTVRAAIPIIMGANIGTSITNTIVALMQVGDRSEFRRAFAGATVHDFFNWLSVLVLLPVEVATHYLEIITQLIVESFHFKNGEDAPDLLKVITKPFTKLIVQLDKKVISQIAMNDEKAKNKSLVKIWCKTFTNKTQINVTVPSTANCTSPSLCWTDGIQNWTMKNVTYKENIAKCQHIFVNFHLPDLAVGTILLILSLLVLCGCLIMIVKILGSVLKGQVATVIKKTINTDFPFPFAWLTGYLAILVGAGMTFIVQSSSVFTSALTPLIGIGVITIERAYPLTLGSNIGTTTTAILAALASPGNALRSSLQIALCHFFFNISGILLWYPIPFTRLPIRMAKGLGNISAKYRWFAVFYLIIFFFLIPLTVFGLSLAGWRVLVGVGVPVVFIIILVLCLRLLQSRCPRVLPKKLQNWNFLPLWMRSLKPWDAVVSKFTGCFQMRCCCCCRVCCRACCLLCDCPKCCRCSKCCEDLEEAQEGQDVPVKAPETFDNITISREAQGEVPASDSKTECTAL
The experiment in a line: cell-based or functional assay.

B1: v29459 (H2L1) (antibody, human IgG1, kappa, V domains shown)
VH: QVQLVQSGAEVKKPGASVKVSCKASGFTFTSYNVHWVRQAPGQGLEWIAAISPGNGDLSYAQKFQGRVTMTVDTSTSTVYMELSSLRSEDTAVYYCARGRTGMGAVDYWGQGTLVTVSS
VL: DIQMTQSPSSLSASVGDRVTITCRASQDVYSYLNWYQQKPGKAPKLLIYYTSRLQSGVPSRFSGSGSGTDFTLTISSLQPEDFATYYCQQYNIFPWTFGQGTKLEIKR
notes: Humanized IgG1/kappa
Molecule B1 came in with a Bmax in test [1] of 40900. In test [2], the Kd stood at 1.61 nM.

B2: v29457 (H4L1) (antibody, human IgG1, kappa, V domains shown)
VH: QVQLVQSGAEVKKPGASVKMSCKASGFTFTSYNVHWVRQAPGQGLEWIAAISPGNGDLSYAQKFQGRATLTVDRSTSTAYMELSSLRSEDTAVYYCARGRTGMGAVDYWGQGTLVTVSS
VL: DIQMTQSPSSLSASVGDRVTITCRASQDVYSYLNWYQQKPGKAPKLLIYYTSRLQSGVPSRFSGSGSGTDFTLTISSLQPEDFATYYCQQYNIFPWTFGQGTKLEIKR
notes: Humanized IgG1/kappa; clones CL_#21506 and CL_#21507
With B2, the Bmax in test [1] came out at 44500. Also, the Kd in test [2] stood at 1.73 nM.

B3: v29460 (H1L1) (antibody, human IgG1, kappa, V domains shown)
VH: QVQLVQSGAEVKKPGASVKVSCKASGFTFTSYNVHWVRQAPGQGLEWMGAISPGNGDLSYAQKFQGRVTMTRDTSTSTVYMELSSLRSEDTAVYYCARGRTGMGAVDYWGQGTLVTVSS
VL: DIQMTQSPSSLSASVGDRVTITCRASQDVYSYLNWYQQKPGKAPKLLIYYTSRLQSGVPSRFSGSGSGTDFTLTISSLQPEDFATYYCQQYNIFPWTFGQGTKLEIKR
notes: Humanized IgG1/kappa
Take B3: in test [1], the Bmax amounted to 40100. Besides, the Kd in test [2] amounted to 1.67 nM.

B4: v29451 (H2L3) (antibody, human IgG1, kappa, V domains shown)
VH: QVQLVQSGAEVKKPGASVKVSCKASGFTFTSYNVHWVRQAPGQGLEWIAAISPGNGDLSYAQKFQGRVTMTVDTSTSTVYMELSSLRSEDTAVYYCARGRTGMGAVDYWGQGTLVTVSS
VL: DVQMTQSPSSLSASVGDRVTITCRASQDVYSYLNWYQQKPGKAVKLLIYYTSRLQSGVPSRFSGSGSGTDYTLTISSLQPEDIATYYCQQYNIFPWTFGQGTKLEIKR
notes: Humanized IgG1/kappa
Turning to B4, the Bmax in test [1] worked out at 46200. For the same molecule, in test [2], the Kd came out at 1.49 nM.

B5: v29453 (H4L2) (antibody, human IgG1, kappa, V domains shown)
VH: QVQLVQSGAEVKKPGASVKMSCKASGFTFTSYNVHWVRQAPGQGLEWIAAISPGNGDLSYAQKFQGRATLTVDRSTSTAYMELSSLRSEDTAVYYCARGRTGMGAVDYWGQGTLVTVSS
VL: DVQMTQSPSSLSASVGDRVTITCRASQDVYSYLNWYQQKPGKAVKLLIYYTSRLQSGVPSRFSGSGSGTDYTLTISSLQPEDFATYYCQQYNIFPWTFGQGTKLEIKR
notes: Humanized IgG1/kappa; clones CL_#21506 and CL_#21508
Consider B5, for which the Bmax in test [1] came to 44500. Moreover, the Kd in test [2] came to 0.82 nM.

B6: v29456-MT-GGFG-AM-Compound 136 DAR 8 (antibody, human IgG1, kappa)
heavy: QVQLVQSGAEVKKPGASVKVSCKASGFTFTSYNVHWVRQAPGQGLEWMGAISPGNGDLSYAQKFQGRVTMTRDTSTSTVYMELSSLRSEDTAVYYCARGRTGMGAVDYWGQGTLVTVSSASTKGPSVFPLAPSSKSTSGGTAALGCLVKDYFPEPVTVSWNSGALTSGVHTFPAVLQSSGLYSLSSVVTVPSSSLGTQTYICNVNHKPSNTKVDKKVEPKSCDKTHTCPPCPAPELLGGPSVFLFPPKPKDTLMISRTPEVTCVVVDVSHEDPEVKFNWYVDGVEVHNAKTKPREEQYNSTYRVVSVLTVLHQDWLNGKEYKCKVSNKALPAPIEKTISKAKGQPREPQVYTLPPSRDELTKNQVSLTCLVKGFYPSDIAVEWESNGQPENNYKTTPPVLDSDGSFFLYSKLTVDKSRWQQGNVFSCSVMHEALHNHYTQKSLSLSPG
light: DVQMTQSPSSLSASVGDRVTITCRASQDVYSYLNWYQQKPGKAVKLLIYYTSRLQSGVPSRFSGSGSGTDYTLTISSLQPEDFATYYCQQYNIFPWTFGQGTKLEIKRTVAAPSVFIFPPSDEQLKSGTASVVCLLNNFYPREAKVQWKVDNALQSGNSQESVTEQDSKDSTYSLSSTLTLSKADYEKHKVYACEVTHQGLSSPVTKSFNRGEC
modifications: drug-linker MT-GGFG-AM-Compound 136 on cysteine thiols after TCEP reduction, positions not given; DAR 8 for the whole antibody
As to B6, in test [3], the “EC50, in vitro cytotoxicity, 2D monolayer, HCC-78” value (“EC50 … HCC-78” below) worked out at 0.43 nM and the “EC50, in vitro cytotoxicity, 2D monolayer, IGROV-1” value stood at 4.48 nM.

B7: v29456-MT-GGFG-AM-Compound 129 DAR 8 (antibody, human IgG1, kappa)
heavy: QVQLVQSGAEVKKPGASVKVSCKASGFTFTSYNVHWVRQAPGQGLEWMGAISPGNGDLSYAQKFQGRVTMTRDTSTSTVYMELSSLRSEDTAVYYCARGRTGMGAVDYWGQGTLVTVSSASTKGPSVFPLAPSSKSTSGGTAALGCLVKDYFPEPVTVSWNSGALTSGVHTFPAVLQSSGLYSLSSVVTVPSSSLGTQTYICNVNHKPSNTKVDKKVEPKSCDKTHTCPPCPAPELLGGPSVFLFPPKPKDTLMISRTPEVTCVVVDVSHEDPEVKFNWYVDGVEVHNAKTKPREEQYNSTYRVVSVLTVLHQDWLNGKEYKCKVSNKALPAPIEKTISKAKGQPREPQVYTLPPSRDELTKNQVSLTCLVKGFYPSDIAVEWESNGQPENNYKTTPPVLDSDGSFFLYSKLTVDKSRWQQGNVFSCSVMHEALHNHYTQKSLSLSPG
light: DVQMTQSPSSLSASVGDRVTITCRASQDVYSYLNWYQQKPGKAVKLLIYYTSRLQSGVPSRFSGSGSGTDYTLTISSLQPEDFATYYCQQYNIFPWTFGQGTKLEIKRTVAAPSVFIFPPSDEQLKSGTASVVCLLNNFYPREAKVQWKVDNALQSGNSQESVTEQDSKDSTYSLSSTLTLSKADYEKHKVYACEVTHQGLSSPVTKSFNRGEC
modifications: drug-linker MT-GGFG-AM-Compound 129 on cysteine thiols after TCEP reduction, positions not given; DAR 8 for the whole antibody
With B7, in test [3], the “EC50 … HCC-78” value is 0.42 nM and the “EC50, in vitro cytotoxicity, 2D monolayer, IGROV-1” value is 1.11 nM.

B8: v29456-MT-GGFG-Compound 148 DAR 8 (antibody, human IgG1, kappa)
heavy: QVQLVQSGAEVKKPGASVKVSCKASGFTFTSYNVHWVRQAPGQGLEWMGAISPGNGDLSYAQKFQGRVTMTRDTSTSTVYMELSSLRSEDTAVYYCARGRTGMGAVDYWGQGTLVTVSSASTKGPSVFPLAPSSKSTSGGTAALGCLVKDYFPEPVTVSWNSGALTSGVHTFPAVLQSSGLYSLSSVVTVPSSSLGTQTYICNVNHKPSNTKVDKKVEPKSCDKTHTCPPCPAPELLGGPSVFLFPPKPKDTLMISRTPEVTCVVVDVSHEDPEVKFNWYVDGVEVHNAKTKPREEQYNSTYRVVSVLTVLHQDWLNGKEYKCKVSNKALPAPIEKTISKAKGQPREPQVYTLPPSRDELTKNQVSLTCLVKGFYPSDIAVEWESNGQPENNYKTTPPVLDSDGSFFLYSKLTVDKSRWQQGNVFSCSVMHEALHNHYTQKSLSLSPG
light: DVQMTQSPSSLSASVGDRVTITCRASQDVYSYLNWYQQKPGKAVKLLIYYTSRLQSGVPSRFSGSGSGTDYTLTISSLQPEDFATYYCQQYNIFPWTFGQGTKLEIKRTVAAPSVFIFPPSDEQLKSGTASVVCLLNNFYPREAKVQWKVDNALQSGNSQESVTEQDSKDSTYSLSSTLTLSKADYEKHKVYACEVTHQGLSSPVTKSFNRGEC
modifications: drug-linker MT-GGFG-Compound 148 on cysteine thiols after TCEP reduction, positions not given; DAR 8 for the whole antibody
As for B8, the “EC50 … HCC-78” value in test [3] came to 1.98 nM.
